{"source": "patent US20110105394A1", "about": "(Novo Nordisk, published 2011)", "binders": {"B1": {"name": "N-alpha-[(S)-4-Carboxy-4-(19-carboxynonadecanoylamino)butyryl]-His-[His1,Arg17]-pramlintide (peptide)", "peptide": "HHCNTATCATQRLANFLRHSSNNFGPILPPTNVGSNTY-NH2", "modifications": "disulfide 3-8; not fully specified (N-terminus); printed as N-alpha-[(S)-4-Carboxy-4-(19-carboxynonadecanoylamino)butyryl]-His-[His1,Arg17]-pramlintide"}, "B2": {"name": "N-alpha-[(S)-4-Carboxy-4-(19-carboxynonadecanoylamino)butyryl]-Glu-Arg-[Glu1,Asp14,His17,Ala25,Pro26,Ser28,Ser29]-pramlintide (peptide)", "peptide": "X2-ERECNTATCATQRLADFLHHSSNNFGAPLSSTNVGSNTY-NH2", "modifications": "disulfide 4-9", "SMILES": "CC(C)C[C@H](NC(=O)[C@H](CCCNC(=N)N)NC(=O)[C@H](CCC(N)=O)NC(=O)[C@@H](NC(=O)[C@H](C)NC(=O)[C@@H]1CSSC[C@H](NC(=O)[C@H](CCC(=O)O)NC(=O)[C@H](CCCNC(=N)N)NC(=O)[C@H](CCC(=O)O)NC(=O)CC[C@H](NC(=O)CCCCCCCCCCCCCCCCCCC(=O)O)C(=O)O)C(=O)N[C@@H](CC(N)=O)C(=O)N[C@@H]([C@@H](C)O)C(=O)N[C@@H](C)C(=O)N[C@@H]([C@@H](C)O)C(=O)N1)[C@@H](C)O)C(=O)N[C@@H](C)C(=O)N[C@@H](CC(=O)O)C(=O)N[C@@H](Cc1ccccc1)C(=O)N[C@@H](CC(C)C)C(=O)N[C@@H](Cc1c[nH]cn1)C(=O)N[C@@H](Cc1c[nH]cn1)C(=O)N[C@@H](CO)C(=O)N[C@@H](CO)C(=O)N[C@@H](CC(N)=O)C(=O)N[C@@H](CC(N)=O)C(=O)N[C@@H](Cc1ccccc1)C(=O)NCC(=O)N[C@@H](C)C(=O)N1CCC[C@H]1C(=O)N[C@@H](CC(C)C)C(=O)N[C@@H](CO)C(=O)N[C@@H](CO)C(=O)N[C@H](C(=O)N[C@@H](CC(N)=O)C(=O)N[C@H](C(=O)NCC(=O)N[C@@H](CO)C(=O)N[C@@H](CC(N)=O)C(=O)N[C@H](C(=O)N[C@@H](Cc1ccc(O)cc1)C(N)=O)[C@@H](C)O)C(C)C)[C@@H](C)O"}, "B3": {"name": "N-alpha-[(S)-4-Carboxy-4-(19-carboxynonadecanoylamino)butyryl]-His-Arg-[His17]-pramlintide (peptide)", "peptide": "HRKCNTATCATQRLANFLHHSSNNFGPILPPTNVGSNTY-NH2", "modifications": "disulfide 4-9; not fully specified (N-terminus); printed as N-alpha-[(S)-4-Carboxy-4-(19-carboxynonadecanoylamino)butyryl]-His-Arg-[His17]-pramlintide"}, "B4": {"name": "N-alpha-[(S)-4-Carboxy-4-(19-carboxynonadecanoylamino)butyryl]-Glu-Arg-[Glu1,His17,Gln21,Ala25,Pro26,Ser28,Ser29]-pramlintide (peptide)", "peptide": "X2-ERECNTATCATQRLANFLHHSSQNFGAPLSSTNVGSNTY-NH2", "modifications": "disulfide 4-9", "SMILES": "CC(C)C[C@H](NC(=O)[C@H](CCCNC(=N)N)NC(=O)[C@H](CCC(N)=O)NC(=O)[C@@H](NC(=O)[C@H](C)NC(=O)[C@@H]1CSSC[C@H](NC(=O)[C@H](CCC(=O)O)NC(=O)[C@H](CCCNC(=N)N)NC(=O)[C@H](CCC(=O)O)NC(=O)CC[C@H](NC(=O)CCCCCCCCCCCCCCCCCCC(=O)O)C(=O)O)C(=O)N[C@@H](CC(N)=O)C(=O)N[C@@H]([C@@H](C)O)C(=O)N[C@@H](C)C(=O)N[C@@H]([C@@H](C)O)C(=O)N1)[C@@H](C)O)C(=O)N[C@@H](C)C(=O)N[C@@H](CC(N)=O)C(=O)N[C@@H](Cc1ccccc1)C(=O)N[C@@H](CC(C)C)C(=O)N[C@@H](Cc1c[nH]cn1)C(=O)N[C@@H](Cc1c[nH]cn1)C(=O)N[C@@H](CO)C(=O)N[C@@H](CO)C(=O)N[C@@H](CCC(N)=O)C(=O)N[C@@H](CC(N)=O)C(=O)N[C@@H](Cc1ccccc1)C(=O)NCC(=O)N[C@@H](C)C(=O)N1CCC[C@H]1C(=O)N[C@@H](CC(C)C)C(=O)N[C@@H](CO)C(=O)N[C@@H](CO)C(=O)N[C@H](C(=O)N[C@@H](CC(N)=O)C(=O)N[C@H](C(=O)NCC(=O)N[C@@H](CO)C(=O)N[C@@H](CC(N)=O)C(=O)N[C@H](C(=O)N[C@@H](Cc1ccc(O)cc1)C(N)=O)[C@@H](C)O)C(C)C)[C@@H](C)O"}, "B5": {"name": "N-alpha-[2-(2-{2-[4-(S)-Carboxy-4-(19-carboxynonadecanoylamino)butyrylamino]ethoxy}ethoxy)acetyl]-His-[His1,Arg17]-pramlintide (peptide)", "peptide": "{C20 diacid-γGlu-AEEA}-HHCNTATCATQRLANFLRHSSNNFGPILPPTNVGSNTY-NH2", "modifications": "disulfide 3-8", "SMILES": "CC[C@H](C)[C@H](NC(=O)[C@@H]1CCCN1C(=O)CNC(=O)[C@H](Cc1ccccc1)NC(=O)[C@H](CC(N)=O)NC(=O)[C@H](CC(N)=O)NC(=O)[C@H](CO)NC(=O)[C@H](CO)NC(=O)[C@H](Cc1c[nH]cn1)NC(=O)[C@H](CCCNC(=N)N)NC(=O)[C@H](CC(C)C)NC(=O)[C@H](Cc1ccccc1)NC(=O)[C@H](CC(N)=O)NC(=O)[C@H](C)NC(=O)[C@H](CC(C)C)NC(=O)[C@H](CCCNC(=N)N)NC(=O)[C@H](CCC(N)=O)NC(=O)[C@@H](NC(=O)[C@H](C)NC(=O)[C@@H]1CSSC[C@H](NC(=O)[C@H](Cc2c[nH]cn2)NC(=O)[C@H](Cc2c[nH]cn2)NC(=O)COCCOCCNC(=O)CC[C@H](NC(=O)CCCCCCCCCCCCCCCCCCC(=O)O)C(=O)O)C(=O)N[C@@H](CC(N)=O)C(=O)N[C@@H]([C@@H](C)O)C(=O)N[C@@H](C)C(=O)N[C@@H]([C@@H](C)O)C(=O)N1)[C@@H](C)O)C(=O)N[C@@H](CC(C)C)C(=O)N1CCC[C@H]1C(=O)N1CCC[C@H]1C(=O)N[C@H](C(=O)N[C@@H](CC(N)=O)C(=O)N[C@H](C(=O)NCC(=O)N[C@@H](CO)C(=O)N[C@@H](CC(N)=O)C(=O)N[C@H](C(=O)N[C@@H](Cc1ccc(O)cc1)C(N)=O)[C@@H](C)O)C(C)C)[C@@H](C)O"}, "B6": {"name": "N-alpha-[2-(2-{2-[4-(S)-Carboxy-4-(19-carboxynonadecanoylamino)butyrylamino]ethoxy}ethoxy)acetyl]-His-[His1,His17]-pramlintide (peptide)", "peptide": "{C20 diacid-γGlu-AEEA}-HHCNTATCATQRLANFLHHSSNNFGPILPPTNVGSNTY-NH2", "modifications": "disulfide 3-8", "SMILES": "CC[C@H](C)[C@H](NC(=O)[C@@H]1CCCN1C(=O)CNC(=O)[C@H](Cc1ccccc1)NC(=O)[C@H](CC(N)=O)NC(=O)[C@H](CC(N)=O)NC(=O)[C@H](CO)NC(=O)[C@H](CO)NC(=O)[C@H](Cc1c[nH]cn1)NC(=O)[C@H](Cc1c[nH]cn1)NC(=O)[C@H](CC(C)C)NC(=O)[C@H](Cc1ccccc1)NC(=O)[C@H](CC(N)=O)NC(=O)[C@H](C)NC(=O)[C@H](CC(C)C)NC(=O)[C@H](CCCNC(=N)N)NC(=O)[C@H](CCC(N)=O)NC(=O)[C@@H](NC(=O)[C@H](C)NC(=O)[C@@H]1CSSC[C@H](NC(=O)[C@H](Cc2c[nH]cn2)NC(=O)[C@H](Cc2c[nH]cn2)NC(=O)COCCOCCNC(=O)CC[C@H](NC(=O)CCCCCCCCCCCCCCCCCCC(=O)O)C(=O)O)C(=O)N[C@@H](CC(N)=O)C(=O)N[C@@H]([C@@H](C)O)C(=O)N[C@@H](C)C(=O)N[C@@H]([C@@H](C)O)C(=O)N1)[C@@H](C)O)C(=O)N[C@@H](CC(C)C)C(=O)N1CCC[C@H]1C(=O)N1CCC[C@H]1C(=O)N[C@H](C(=O)N[C@@H](CC(N)=O)C(=O)N[C@H](C(=O)NCC(=O)N[C@@H](CO)C(=O)N[C@@H](CC(N)=O)C(=O)N[C@H](C(=O)N[C@@H](Cc1ccc(O)cc1)C(N)=O)[C@@H](C)O)C(C)C)[C@@H](C)O"}, "B7": {"name": "N-alpha-[(S)-4-Carboxy-4-(19-carboxynonadecanoylamino)butyryl]-His-His-[His1,His17]-pramlintide (peptide)", "peptide": "HHHCNTATCATQRLANFLHHSSNNFGPILPPTNVGSNTY-NH2", "modifications": "disulfide 4-9; not fully specified (N-terminus); printed as N-alpha-[(S)-4-Carboxy-4-(19-carboxynonadecanoylamino)butyryl]-His-His-[His1,His17]-pramlintide"}, "B8": {"name": "N-alpha-[(S)-4-Carboxy-4-(19-carboxynonadecanoylamino)butyryl]-[His1,Arg17]-pramlintide (peptide)", "peptide": "{C20 diacid-γGlu}-HCNTATCATQRLANFLRHSSNNFGPILPPTNVGSNTY-NH2", "modifications": "disulfide 2-7", "SMILES": "CC[C@H](C)[C@H](NC(=O)[C@@H]1CCCN1C(=O)CNC(=O)[C@H](Cc1ccccc1)NC(=O)[C@H](CC(N)=O)NC(=O)[C@H](CC(N)=O)NC(=O)[C@H](CO)NC(=O)[C@H](CO)NC(=O)[C@H](Cc1c[nH]cn1)NC(=O)[C@H](CCCNC(=N)N)NC(=O)[C@H](CC(C)C)NC(=O)[C@H](Cc1ccccc1)NC(=O)[C@H](CC(N)=O)NC(=O)[C@H](C)NC(=O)[C@H](CC(C)C)NC(=O)[C@H](CCCNC(=N)N)NC(=O)[C@H](CCC(N)=O)NC(=O)[C@@H](NC(=O)[C@H](C)NC(=O)[C@@H]1CSSC[C@H](NC(=O)[C@H](Cc2c[nH]cn2)NC(=O)CC[C@H](NC(=O)CCCCCCCCCCCCCCCCCCC(=O)O)C(=O)O)C(=O)N[C@@H](CC(N)=O)C(=O)N[C@@H]([C@@H](C)O)C(=O)N[C@@H](C)C(=O)N[C@@H]([C@@H](C)O)C(=O)N1)[C@@H](C)O)C(=O)N[C@@H](CC(C)C)C(=O)N1CCC[C@H]1C(=O)N1CCC[C@H]1C(=O)N[C@H](C(=O)N[C@@H](CC(N)=O)C(=O)N[C@H](C(=O)NCC(=O)N[C@@H](CO)C(=O)N[C@@H](CC(N)=O)C(=O)N[C@H](C(=O)N[C@@H](Cc1ccc(O)cc1)C(N)=O)[C@@H](C)O)C(C)C)[C@@H](C)O"}}, "target": "T1, Amylin 3(a) receptor (human calcitonin receptor (CTa) with RAMP-3) (human, UniProt P30988 25-474; O60896 24-148, limits assumed)", "T1 sequence (looked up) 1": "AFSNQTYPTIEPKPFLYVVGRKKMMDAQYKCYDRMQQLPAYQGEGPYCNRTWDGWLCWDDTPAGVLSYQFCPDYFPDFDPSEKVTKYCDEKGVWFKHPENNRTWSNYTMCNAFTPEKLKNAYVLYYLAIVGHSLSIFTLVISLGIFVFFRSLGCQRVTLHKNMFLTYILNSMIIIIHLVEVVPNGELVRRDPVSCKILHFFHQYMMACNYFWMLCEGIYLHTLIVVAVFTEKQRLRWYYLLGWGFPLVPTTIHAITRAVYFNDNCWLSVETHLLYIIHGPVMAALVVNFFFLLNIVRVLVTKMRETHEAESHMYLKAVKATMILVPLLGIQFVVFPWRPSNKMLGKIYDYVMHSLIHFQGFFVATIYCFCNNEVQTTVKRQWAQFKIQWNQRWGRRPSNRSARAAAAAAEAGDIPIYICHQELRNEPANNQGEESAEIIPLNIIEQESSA", "T1 sequence (looked up) 2": "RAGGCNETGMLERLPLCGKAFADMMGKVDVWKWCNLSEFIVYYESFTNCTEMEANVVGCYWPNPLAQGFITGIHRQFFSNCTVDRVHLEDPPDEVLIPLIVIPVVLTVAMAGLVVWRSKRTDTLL", "assay": "cell-based or functional assay", "note": "*1 amine or outer side, *2 acyl side, *3 side chain or, on linkers, in order; H or OH if unused. Bridges are numbered along the chain shown (N, C = ends). Where no end group is shown, it is not given here. Side-chain parts run from the residue outwards. The star is where a group is joined. X2 = (S)‑4‑Carboxy‑4‑(19-carboxynonadecanoylamino)butyryl, O=C(O)CCCCCCCCCCCCCCCCCCC(=O)N[C@@H](CCC(=O)*)C(=O)O; C20 diacid = O=C(O)CCCCCCCCCCCCCCCCCCC(=O)*; γGlu = O=C(O)[C@H](CCC(=O)[*:2])N[*:1]; AEEA = NCCOCCOCC(=O)O"}
{"binder": "KCK([Glu-Glu-Glu-Glu-C20 diacid])TATCATQRLANFLHHSSDNFGPILPPTNVGSNTY-NH2 (disulfide 2-7)", "note": "[N-epsilon3-(19-carboxynonadecanoyl-Glu-Glu-Glu-Glu)-[Lys3,His17,Asp21]-pramlintide]", "values": [{"measurement": "Potency Luciferase", "value": 2000, "unit": "pM"}]}
{"binder": "B1", "values": [{"measurement": "Potency Luciferase", "value": 100, "unit": "pM"}]}
{"binder": "B2", "values": [{"measurement": "Potency Luciferase", "value": 600, "unit": "pM"}]}
{"binder": "B3", "values": [{"measurement": "Potency Luciferase", "value": 100, "unit": "pM"}]}
{"binder": "B4", "values": [{"measurement": "Potency Luciferase", "value": 100, "unit": "pM"}]}
{"binder": "B5", "values": [{"measurement": "Potency Luciferase", "value": 200, "unit": "pM"}]}
{"binder": "B6", "values": [{"measurement": "Potency Luciferase", "value": 100, "unit": "pM"}]}
{"binder": "B7", "values": [{"measurement": "Potency Luciferase", "value": 60, "unit": "pM"}]}
{"binder": "B8", "values": [{"measurement": "Potency Luciferase", "value": 100, "unit": "pM"}]}
{"binder": "{C20 diacid-γGlu-AEEA}-HCNTATCATQRLANFLHHSSNNFGPILPPTNVGSNTY-NH2 (disulfide 2-7)", "values": [{"measurement": "Potency Luciferase", "value": 90, "unit": "pM"}]}
